Where two headings read alike, the source gives them in different places.
How the values were obtained:
GST-nNOS[1–155] (human) = GST-nNOS[1–155] (human) (UniProt P29475); assay: pull-down; solid-phase no-wash binding assay: 5 μl beads bound to 1 μg GST-fused nNOS protein (or GST for background) rotated with His-TAT-NOS1AP peptides for 1 h at 4°C; unbound removed by centrifugation in filter plates, no wash; bound peptide quantified by fluorescent immunoblot; GST background subtracted; 1-site quadratic fit
nNOS [1] = molecular target: nNOS (UniProt P29475); conditions: cited from earlier work
His-nNOS[1–155] (human) = His-nNOS[1–155] (human) (UniProt P29475); assay: fluorescence polarisation; competition FP: 1 μM F-GDLV, 4 μM His-nNOS(1–155), increasing competitor; approximate Kc (dissociation constant of the competitor, affinity for the nNOS PDZ pocket) from the single-site competition formula
nNOS [2] = molecular target: nNOS (UniProt P29475); assay: solid-phase no-wash assay; conditions: cited from earlier work

Substance: His-TAT-NOS1AP[400–503] F431A, denatured (from UniProt O75052 400-503) (domain or fragment)
- Kd (GST-nNOS[1–155] (human)): 100 µM

Substance: NOS1AP-9C
- Kd (nNOS [1]): > 600 µM

Substance: NOS1AP[400–503] F431A cleaved from GST (from UniProt O75052 400-503) (domain or fragment)
- Ki (His-nNOS[1–155] (human)): > 10 µM

Substance: TAT-NOS1AP 400-506 (from UniProt O75052)
- Kd (nNOS [2]): 0.75 µM
